Values of other authors, collected in PMC7005313.

Biological target: Tyr99 (UniProt position 100, KDGNGYISAAE)
Test: fluorescence
Settings: not stated (the title of the cited paper refers to calcium and pH dependence)

Calmodulin (bovine testes) (Bos taurus)
pKa: as low as 7.0
